Biological target: T1, tryptophan 2-C-methyltransferase (TsrM) from Streptomyces laurentii (Streptomyces laurentii, UniProt C0JRZ9 1-599)
T1 sequence (looked up): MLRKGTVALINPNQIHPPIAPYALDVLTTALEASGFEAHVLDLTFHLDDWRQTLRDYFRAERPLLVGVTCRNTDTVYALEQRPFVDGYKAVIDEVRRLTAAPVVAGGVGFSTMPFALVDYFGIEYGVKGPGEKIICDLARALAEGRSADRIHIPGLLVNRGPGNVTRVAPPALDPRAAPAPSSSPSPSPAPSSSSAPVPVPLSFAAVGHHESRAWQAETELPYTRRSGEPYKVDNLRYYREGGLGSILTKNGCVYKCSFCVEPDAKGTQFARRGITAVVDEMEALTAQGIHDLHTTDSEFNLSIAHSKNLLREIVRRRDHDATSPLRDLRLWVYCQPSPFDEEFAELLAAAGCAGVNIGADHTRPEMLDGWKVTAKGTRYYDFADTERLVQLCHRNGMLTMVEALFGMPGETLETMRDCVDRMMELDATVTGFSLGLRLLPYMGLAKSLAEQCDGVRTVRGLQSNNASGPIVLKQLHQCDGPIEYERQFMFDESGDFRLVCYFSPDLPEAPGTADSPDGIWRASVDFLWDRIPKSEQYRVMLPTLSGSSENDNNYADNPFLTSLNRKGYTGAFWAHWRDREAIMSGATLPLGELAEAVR
Experiment: BLI

B1: Streptomyces cattleya [4Fe-4S] ferredoxin Fdx1 (natural protein, UniProt F8K3M7 1-106, looked up)
chain: MTYVIAQPCVDVKDKACIEECPVDCIYEGQRSLYIHPDECVDCGACEPVCPVEAIFYEDDTPEEWKDYYKANVEFFDELGSPGGASKLGLIERDHPFIAALPPQNG
modifications: biotinylated through incubation with 1 equivalent of NHS-PEG4-Biotin
**Q.** Which Kd does the source give for B1 here?
**A.** 40 µM
